Measurements from the supplement of paper PMC7877785.
± gives the uncertainty stated by the source.

Assay: self-splicing fitness, log relative to wild type (ln ratio); higher = more splicing; Tetrahymena group I intron in knt gene, E. coli kanamycin selection, DiMSum; sequences stand for … in CUCUCU…GGAGGGAAAAGUUAUCAGGCAUGCACCUGGUAGCUAGUCUUUAAACCAAUAGAUUGCAUCGGUUUAAAAGGCAAGACCGUCAAAUUGCGGGAAAGGGGUCAACAGCCGUUCAGUACCAAGUCUCAGGGGAAACUUUGAGAUGGCCUUGCAAAGGGUAUGGUAAUAAGCUGACGGACAUGGUCCUAACCACGCAGCCAAGUCCUAAGUCAACAGAUCUUCUGUUGAUAUGGAUGCAGUUCACAGACUAAAUGUCGGUCGGGGAAGAUGUAUUCUUCUCAUAAGAUAUAGUCGGACCUCUCCUUAAUGGGAGCUAGCGGAUGAAGUGAUGCAACACUGGAGCCGCUGGGAACUAAUUUGUAUGCGAAAGUAUAUUGAUUAGUUUUGGAGUACUCGUGGUCG
Outline: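 Fitness was computed with DiMSum as the error-weighted combination of replicate fold changes, kanamycin versus none, each normalised to wild type. The library randomised all eight intron nucleotides of the P1ex region, with the intron placed in the knt kanamycin-resistance gene on pET-22b(+) in E. coli BL21(DE3). Six replicate transformations were grown overnight at 37°C or 30°C on LB agar with or without 25 μg/mL kanamycin, plus 100 μg/mL carbenicillin, 50 μM IPTG and 0.2% rhamnose. Pooled colonies were amplicon-sequenced on an Illumina HiSeq 2500.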

Sequence	self-splicing fitness (ln) (30 °C)	self-splicing fitness (ln) (37 °C)
UCCAAGCAAUAUUACGCUUG	-3.72 ± 0.17	-2.11 ± 0.28
UCCAAGCAAUAUUACGGAAG	-1.85 ± 0.2	-1.8 ± 0.24
UCCAAGCAAUAUUACGGACG	-4.26 ± 0.2	-2.82 ± 0.16
UCCAAGCAAUAUUACGGCGU	-1.95 ± 0.091	-0.529 ± 0.1
UCCAAGCAAUAUUACGGUAA	-0.334 ± 0.067	0.257 ± 0.076
UCCAAGCAAUAUUACGUAUU	-3.44 ± 0.19	-2.46 ± 0.21
UCCAAGCAAUAUUACGUCGG	-1.11 ± 0.074	-0.182 ± 0.091
UCCAAGCAAUAUUACGUGCA	-0.24 ± 0.083	0.425 ± 0.11
UCCAAGCAAUAUUACGUUAG	-1.97 ± 0.13	-2.91 ± 0.28
UCCAAGCAAUAUUACGUUGU	-3.79 ± 0.16	-1.7 ± 0.13
UCCAAGCAAUAUUACGUUUA	-3.15 ± 0.12	-1.98 ± 0.11
UCCAAGCAAUAUUACGUUUG	-3.5 ± 0.15	-2.97 ± 0.2
UCCCAGCAAUAUUACGAACA	-1.51 ± 0.13	-0.139 ± 0.12
UCCCAGCAAUAUUACGAAUG	-2.98 ± 0.15	-2.61 ± 0.17
UCCCAGCAAUAUUACGAGGC	-2.23 ± 0.14	-0.738 ± 0.14
UCCCAGCAAUAUUACGAGUU	-3.85 ± 0.2	-2.45 ± 0.15
UCCCAGCAAUAUUACGAUCC	-1.93 ± 0.41	-1.58 ± 0.46
UCCCAGCAAUAUUACGAUUA	-1.71 ± 0.12	-1.36 ± 0.14
UCCCAGCAAUAUUACGCACU	-1.64 ± 0.12	-1.04 ± 0.14
UCCCAGCAAUAUUACGCAUG	-4.28 ± 0.22	-2.41 ± 0.19
UCCCAGCAAUAUUACGCCAU	-3.09 ± 0.18	-2.83 ± 0.38
UCCCAGCAAUAUUACGCCUA	-1.41 ± 0.078	-1.34 ± 0.08
UCCCAGCAAUAUUACGCGCA	-0.296 ± 0.093	-0.219 ± 0.089
UCCCAGCAAUAUUACGCUCA	-1.48 ± 0.11	-0.496 ± 0.11
UCCCAGCAAUAUUACGCUUU	-2.7 ± 0.16	-2 ± 0.15

Sequence	self-splicing fitness (ln) (30 °C)	self-splicing fitness (ln) (37 °C)
UCCCAGCAAUAUUACGGAAU	-3.64 ± 0.18	-1.53 ± 0.12
UCCCAGCAAUAUUACGGACG	-3.93 ± 0.21	-1.97 ± 0.12
UCCCAGCAAUAUUACGGAGG	-3.51 ± 0.14	-2.23 ± 0.18
UCCCAGCAAUAUUACGGAUC	-2.71 ± 0.13	-1.64 ± 0.14
UCCCAGCAAUAUUACGGGCG	-0.841 ± 0.058	-0.455 ± 0.07
UCCCAGCAAUAUUACGGUGA	-1.57 ± 0.11	-1.02 ± 0.11
UCCCAGCAAUAUUACGGUUU	-1.23 ± 0.061	-0.274 ± 0.076
UCCCAGCAAUAUUACGUAUA	-2.5 ± 0.1	-1.33 ± 0.1
UCCCAGCAAUAUUACGUCUC	-3.23 ± 0.22	-2.89 ± 0.25
UCCCAGCAAUAUUACGUGCU	-3.59 ± 0.2	-2.92 ± 0.19
UCCCAGCAAUAUUACGUGGU	-1.53 ± 0.069	-0.339 ± 0.071
UCCCAGCAAUAUUACGUUAG	-4.08 ± 0.19	-2.78 ± 0.18
UCCCAGCAAUAUUACGUUCG	-3.65 ± 0.2	-2.96 ± 0.27
UCCGAGCAAUAUUACGCAGC	-4.03 ± 0.35	-2.51 ± 0.39
UCCGAGCAAUAUUACGCCAU	-2.56 ± 0.28	-3.16 ± 0.4
UCCGAGCAAUAUUACGCGGA	-2.27 ± 0.3	–
UCCGAGCAAUAUUACGCUUC	–	-2.37 ± 0.35
UCCGAGCAAUAUUACGGGCA	-1.79 ± 0.12	-0.787 ± 0.1
UCCGAGCAAUAUUACGGGUG	-1.97 ± 0.089	-1.66 ± 0.099
UCCGAGCAAUAUUACGGUUG	-3.29 ± 0.26	-3.07 ± 0.3
UCCGAGCAAUAUUACGUAUC	-2.88 ± 0.25	-2.07 ± 0.37
UCCGAGCAAUAUUACGUCCU	-2.6 ± 0.28	–
UCCGAGCAAUAUUACGUCUU	-3.54 ± 0.25	-1.62 ± 0.2
UCCGAGCAAUAUUACGUGUC	–	-2.64 ± 0.34
